This passage reports interaction score results from publication PMC10397247.

Test in all cases: two-hybrid library CCmax;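 further: natural log of median RNA to DNA barcode read ratio; higher means stronger binding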
The target in experiment [1] is T1, 4H347-AA.
T1 chain: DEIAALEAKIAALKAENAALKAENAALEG

Experiment [2] addresses T2, 4H3493-AA.
T2 chain: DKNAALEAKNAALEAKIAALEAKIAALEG

Experiment [3] has as its target T3, 4H376-AA.
T3 chain: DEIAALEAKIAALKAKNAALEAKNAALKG
As to conditions: mean of both orientations.

The target of experiment [4] is T4, 4H406-AA.
T4 chain: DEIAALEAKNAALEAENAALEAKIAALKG
Conditions: mean of both orientations.

Experiment [5] deals with T5, 4H452-AA.
T5 chain: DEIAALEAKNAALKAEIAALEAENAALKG
Conditions: mean of both orientations.

Experiment [6] deals with T6, 4H56-AA.
T6 chain: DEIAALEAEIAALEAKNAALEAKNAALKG
Conditions: mean of both orientations.

The target in experiment [7] is T7, 4H688-AA.
T7 chain: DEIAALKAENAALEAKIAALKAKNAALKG
Conditions: mean of both orientations.

In experiment [8] the target is T8, 4H963-AA.
T8 chain: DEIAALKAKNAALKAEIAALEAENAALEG
As to conditions: mean of both orientations.

In experiment [9] the target is T9, 4H_APH.
T9 chain: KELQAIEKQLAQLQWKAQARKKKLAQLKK
Conditions: mean of both orientations.

In experiment [10] the target is T10, 4H_BCR.
T10 chain: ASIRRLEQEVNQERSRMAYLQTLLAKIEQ
As to conditions: mean of both orientations.

For experiment [11], the target named is 4H_GCN4.
4H_GCN4, sequence (chain, as listed by the source): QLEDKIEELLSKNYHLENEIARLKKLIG
Experiment [12] addresses GCN2_T. As to conditions: mean of both orientations.

Read-outs that look alike come from different tables or passages of the source.

As for DEIAALEAKIAALKAENAALKAENAALEG [4H347-AA], the interaction score in experiment [1] was -0.315; in [2] (mean of both orientations) it was -2.08; in experiment [3] it was -1.06; in experiment [4] it was -1.21; in [5] it was -0.224; in [6], -0.0342. The interaction score in [7] was -0.941; in [8] it was -1.41; in experiment [9] it was -1.79; in experiment [10], -1.88; in experiment [11] it was -2.04; in [12], -2.14.

As for DKNAALEAKNAALEAKIAALEAKIAALEG [4H3493-AA], the interaction score in experiment [2] was 0.972; in [3], -1.47; in experiment [4] it was -1.82; in experiment [7], -1.63; in experiment [8], -1.58.
